Blank lines part the entries; values can stand above or below the binder they belong to. No end group written: not given here. *: point of attachment. Biotin = O=C1N[C@H]2[C@H](CS[C@H]2CCCCC(=O)*)N1
How the values were obtained:
[1] = target: T1, Recombinant nucleolin protein (murine, residues 309–644) (mouse, UniProt P09405 309-644); assay: plate binding assay read by fluorescence of PE-labelled streptavidin
[2] = target: T2, Recombinant mouse NRP-1 protein (mouse, UniProt P97333 22-856); assay: as above
T2 sequence (looked up): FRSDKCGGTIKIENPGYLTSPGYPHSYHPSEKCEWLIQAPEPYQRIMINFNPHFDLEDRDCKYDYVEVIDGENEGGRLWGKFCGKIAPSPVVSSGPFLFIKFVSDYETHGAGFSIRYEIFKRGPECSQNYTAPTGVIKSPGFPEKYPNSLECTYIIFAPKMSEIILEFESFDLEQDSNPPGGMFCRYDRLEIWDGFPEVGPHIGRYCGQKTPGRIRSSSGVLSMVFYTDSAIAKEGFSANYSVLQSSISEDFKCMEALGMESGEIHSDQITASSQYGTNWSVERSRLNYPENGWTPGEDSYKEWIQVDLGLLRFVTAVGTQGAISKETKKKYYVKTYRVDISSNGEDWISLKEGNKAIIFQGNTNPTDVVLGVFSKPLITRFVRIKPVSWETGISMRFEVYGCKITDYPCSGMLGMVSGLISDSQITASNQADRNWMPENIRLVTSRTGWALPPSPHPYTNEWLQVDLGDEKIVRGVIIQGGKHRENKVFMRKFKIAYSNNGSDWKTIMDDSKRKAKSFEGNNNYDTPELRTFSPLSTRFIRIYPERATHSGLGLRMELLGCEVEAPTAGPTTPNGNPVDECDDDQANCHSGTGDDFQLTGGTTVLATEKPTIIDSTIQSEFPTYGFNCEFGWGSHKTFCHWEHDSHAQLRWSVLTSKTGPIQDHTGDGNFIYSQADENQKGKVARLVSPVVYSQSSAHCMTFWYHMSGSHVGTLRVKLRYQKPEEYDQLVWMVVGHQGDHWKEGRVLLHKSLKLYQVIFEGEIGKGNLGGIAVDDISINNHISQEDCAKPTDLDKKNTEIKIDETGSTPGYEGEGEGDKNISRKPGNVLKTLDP

[3] = target: T1, Recombinant nucleolin protein (murine, …); assay: plate competition assay read by fluorescence of PE-labelled streptavidin

T1 sequence (P09405 309-644): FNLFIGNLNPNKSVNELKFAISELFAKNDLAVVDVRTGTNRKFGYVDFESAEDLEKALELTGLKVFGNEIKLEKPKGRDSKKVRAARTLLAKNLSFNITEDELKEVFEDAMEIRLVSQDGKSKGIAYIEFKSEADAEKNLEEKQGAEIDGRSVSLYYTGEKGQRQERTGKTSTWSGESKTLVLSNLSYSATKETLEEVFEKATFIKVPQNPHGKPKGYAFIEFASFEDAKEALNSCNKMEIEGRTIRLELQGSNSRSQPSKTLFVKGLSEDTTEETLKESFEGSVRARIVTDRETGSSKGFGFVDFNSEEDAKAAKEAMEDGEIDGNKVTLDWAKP

binding result [1]: binds
Binder: Biotin-VSYKAIRVSYKAIRVSYKAIR [biotin-labeled Dp1×3]

binding result [2]: binds
Binder: Biotin-VSYKAIR [biotin-labeled DC-targeting peptide Dp1]

binding result [3]: binds
Binder: VSYKAIRVSYKAIRVSYKAIR [Dp1×3 (unlabelled)]
